Target: CD19 (UniProt P15391)
Assay: cell-based or functional assay

UniProt P15391, sequence (P15391 20-556 limits assumed): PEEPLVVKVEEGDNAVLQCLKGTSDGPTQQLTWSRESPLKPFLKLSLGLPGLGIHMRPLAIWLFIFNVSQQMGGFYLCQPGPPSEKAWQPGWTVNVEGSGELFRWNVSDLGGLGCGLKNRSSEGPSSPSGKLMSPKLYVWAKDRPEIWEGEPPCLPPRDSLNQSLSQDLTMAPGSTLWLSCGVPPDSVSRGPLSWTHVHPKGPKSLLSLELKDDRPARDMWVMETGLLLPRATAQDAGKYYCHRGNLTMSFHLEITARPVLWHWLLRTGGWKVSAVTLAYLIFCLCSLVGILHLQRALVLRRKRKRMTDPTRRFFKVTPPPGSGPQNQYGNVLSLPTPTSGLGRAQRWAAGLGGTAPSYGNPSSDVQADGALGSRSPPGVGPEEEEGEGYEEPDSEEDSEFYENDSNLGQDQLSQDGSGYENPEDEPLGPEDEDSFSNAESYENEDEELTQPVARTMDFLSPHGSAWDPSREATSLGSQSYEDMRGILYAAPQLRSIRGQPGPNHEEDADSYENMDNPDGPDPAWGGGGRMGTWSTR
FMC63-CD8BBZ CAR, sequence (Q07011 209-255): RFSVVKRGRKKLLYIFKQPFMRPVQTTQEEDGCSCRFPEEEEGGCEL

Substance: FMC63-CD8BBZ CAR
- IFNγ ELISA, CAR T-cells cultured overnight with CD19-K562 cells: 44300 pg/mL IFNγ
- IFNγ ELISA, CAR T-cells cultured overnight with primary CLL cells (CD19-Positive Targets): 13900 pg/mL IFNγ
